# Ends that are not written are not given here.
# Molecular target: T1, GFP-RIIα D/D (mouse, UniProt P12367 1-46)
# T1 construct: range 1-46; His tag cleaved with thrombin; also called GFP-RII D/D; D/D domain of mouse RIIα (residues 1-46) fused to GFP; not shown: green fluorescent protein (GFP)
# Assay: SPOT peptide array, anti-GFP detection
# Experimental: (§1) In addition, the minimal sequence required for regulatory subunit binding was also assessed using N- and C-terminal truncations of the 27-residue human D-AKAP2 sequence. N-terminal or C-terminal truncated peptides were synthesized using SPOT synthesis on cellulose membrane as described herein. Binding was evaluated by incubating each membrane with GFP-RIα D/D and GFP-RIIα D/D as indicated below. The dimerization/docking (D/D) domain of bovine RIα (residues 1-109) and mouse RIIα (residues 1-46), fused to green fluorescence protein (GFP) were subcloned into a pRSET expression vector (Invitrogen, Carlsbad, Calif.) downstream of a histidine tag. The proteins, GFP-RIα D/D and GFP-RIIα D/D were expressed in E. coli BL21 (DE3) and purified using Talon (Clontech, Palo Alto, Calif.) resin. The His tag was cleaved using thrombin and the protein further purified using an S75-Sephadex (16/60) gel filtration column (Pharmacia, Peapack, N.J.) in 50 mM MES pH 5.8, 50 mM NaCl, 2 mM EDTA, 2 mM EGTA, 2 mM DTT. The protein was stored at 4° C.
# (§2) Bound protein was detected using a primary antibody against GFP and enzyme conjugated secondary antibody for amplification of signal. The membrane was then analyzed by chemiluminescence.
# T1 sequence (P12367 1-46): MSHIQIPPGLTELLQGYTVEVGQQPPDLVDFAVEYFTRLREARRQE
row,Binder,binding result
1,VQGNTDEAQEELAWKIAK (also: cellulose-bound) [SEQ ID NO:91 peptide],no binding
2,VQGNTDEAQEELAWK (also: cellulose-bound) [SEQ ID NO:94 peptide],no binding
3,VQGNTDEAQEELAW (also: cellulose-bound) [SEQ ID NO:95 peptide],no binding
4,VQGNTDEAQEELAWKIAKMIVSDIMQ (also: cellulose-bound) [SEQ ID NO:83 peptide],binds
5,VQGNTDEAQEELAWKIAKMIVS (also: cellulose-bound) [SEQ ID NO:87 peptide],binds
6,VQGNTDEAQEELAWKIAKMI (also: cellulose-bound) [SEQ ID NO:89 peptide],no binding
7,VQGNTDEAQEEL (also: cellulose-bound) [SEQ ID NO:97 peptide],no binding
8,VQGNTDEAQEELA (also: cellulose-bound) [SEQ ID NO:96 peptide],no binding
9,VQGNTDEAQEELAWKI (also: cellulose-bound) [SEQ ID NO:93 peptide],no binding
10,VQGNTDEAQEELAWKIAKMIV (also: cellulose-bound) [SEQ ID NO:88 peptide],binds
11,VQGNTDEAQEELAWKIA (also: cellulose-bound) [SEQ ID NO:92 peptide],no binding
12,VQGNTDEAQE (also: cellulose-bound) [SEQ ID NO:99 peptide],no binding
13,VQGNTDEAQEELAWKIAKMIVSD (also: cellulose-bound) [SEQ ID NO:86 peptide],binds
14,VQGNTDEAQEELAWKIAKMIVSDI (also: cellulose-bound) [SEQ ID NO:85 peptide],binds
15,VQGNTDEAQEE (also: cellulose-bound) [SEQ ID NO:98 peptide],no binding
16,VQGNTDEAQEELAWKIAKM (also: cellulose-bound) [SEQ ID NO:90 peptide],no binding
17,VQGNTDEAQEELAWKIAKMIVSDIM (also: cellulose-bound) [SEQ ID NO:84 peptide],binds

# Molecular target: T2, GFP-RIα D/D (bovine, UniProt P00514 1-109)
# T2 construct: range 1-109; His tag cleaved with thrombin; also called dimerization/docking (D/D) domain of bovine RIα (residues 1-109) fused to GFP; not shown: green fluorescent protein (GFP)
# Assay: SPOT peptide array, anti-GFP detection
# Experimental: as §1, §2
# T2 sequence (P00514 1-109): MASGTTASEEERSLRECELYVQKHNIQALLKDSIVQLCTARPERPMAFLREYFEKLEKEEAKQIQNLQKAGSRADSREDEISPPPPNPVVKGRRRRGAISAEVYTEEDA
row,Binder,binding result
1,VQGNTDEAQEELAWKIAK (also: cellulose-bound) [SEQ ID NO:91 peptide],no binding
2,VQGNTDEAQEELAWK (also: cellulose-bound) [SEQ ID NO:94 peptide],no binding
3,VQGNTDEAQEELAW (also: cellulose-bound) [SEQ ID NO:95 peptide],no binding
4,VQGNTDEAQEELAWKIAKMIVSDIMQ (also: cellulose-bound) [SEQ ID NO:83 peptide],binds
5,VQGNTDEAQEELAWKIAKMIVS (also: cellulose-bound) [SEQ ID NO:87 peptide],no binding
6,VQGNTDEAQEELAWKIAKMI (also: cellulose-bound) [SEQ ID NO:89 peptide],no binding
7,VQGNTDEAQEEL (also: cellulose-bound) [SEQ ID NO:97 peptide],no binding
8,VQGNTDEAQEELA (also: cellulose-bound) [SEQ ID NO:96 peptide],no binding
9,VQGNTDEAQEELAWKI (also: cellulose-bound) [SEQ ID NO:93 peptide],no binding
10,VQGNTDEAQEELAWKIAKMIV (also: cellulose-bound) [SEQ ID NO:88 peptide],no binding
11,VQGNTDEAQEELAWKIA (also: cellulose-bound) [SEQ ID NO:92 peptide],no binding
12,VQGNTDEAQE (also: cellulose-bound) [SEQ ID NO:99 peptide],no binding
13,VQGNTDEAQEELAWKIAKMIVSD (also: cellulose-bound) [SEQ ID NO:86 peptide],no binding
14,VQGNTDEAQEELAWKIAKMIVSDI (also: cellulose-bound) [SEQ ID NO:85 peptide],binds
15,VQGNTDEAQEE (also: cellulose-bound) [SEQ ID NO:98 peptide],no binding
16,VQGNTDEAQEELAWKIAKM (also: cellulose-bound) [SEQ ID NO:90 peptide],no binding
17,VQGNTDEAQEELAWKIAKMIVSDIM (also: cellulose-bound) [SEQ ID NO:84 peptide],binds

# Molecular target: T3, Full-length murine RIIα (murine, UniProt P12367 2-401)
# T3 construct: mature; given as full-length
# Assay: fluorescence anisotropy, labeled peptide
# Experimental: (§3) Binding of each fluorescently labeled peptide to the regulatory subunits was monitored using fluorescence anisotropy. RIα and RIIα were serially diluted beginning at 1 μM and 0.1 μM, respectively, into 10 mM HEPES pH 7.4, 0.15 M NaCl, 3 mM EDTA, 0.005% Surfactant P20 (Biacore) containing either 10 nM or 1 nM of fluorescently labeled peptide for RIα and RIIα, respectively. The samples were equilibrated for at least 1 hour at room temperature and fluorescence anisotropy monitored using a Fluoromax-2 (Jobin Yvon Horiba, SPEX Division, Edison, N.J.) equipped with Glan-Thompson polarizers. The rhodamine-labeled peptide was excited at 541 nm (5-10 nm bandpass) and emission monitored at 575 nm (5-10 nm bandpass). The anisotropy was calculated directly with the Fluoromax software using the following equation: […]
# (§4) Several additional truncated and substituted peptides were synthesized and their affinity to RIα and RIIα evaluated using fluorescence anisotropy (see Table 8). Binding was evaluated for both RIα and RIIα0 using fluorescence anisotropy as described herein. Substituted residues are in bold Table 8. Tryptophan at a position corresponding to residue 21 of SEQ ID NO:2 is important for discriminating against binding to the RIIα subunit.
# T3 sequence (P12367 2-401): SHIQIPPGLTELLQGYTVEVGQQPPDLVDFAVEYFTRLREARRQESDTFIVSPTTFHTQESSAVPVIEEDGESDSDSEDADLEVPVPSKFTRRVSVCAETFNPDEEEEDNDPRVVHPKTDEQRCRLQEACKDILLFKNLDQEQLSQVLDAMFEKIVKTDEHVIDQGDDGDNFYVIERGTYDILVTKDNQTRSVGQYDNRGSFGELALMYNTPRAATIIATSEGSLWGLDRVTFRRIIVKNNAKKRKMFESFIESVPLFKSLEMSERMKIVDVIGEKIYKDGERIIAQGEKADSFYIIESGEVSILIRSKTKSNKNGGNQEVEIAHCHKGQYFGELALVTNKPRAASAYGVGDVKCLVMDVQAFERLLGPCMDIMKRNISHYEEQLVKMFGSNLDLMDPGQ
row,Binder,Kd [nM]
1,"VQGNTDEAQEELAWKIAKMIWSDVMQQC(tetramethylrhodamine‑5‑maleimide)-NH2 (also called single mutant V21W) [SEQ ID NO:111 peptide (. . . QEELAWKIAKMIWSDVMQQC), rhodamine-labeled]",83
2,"FEELAWKIAKMIWSDVMQQC(tetramethylrhodamine‑5‑maleimide)-NH2 [PV-37 (SEQ ID NO:104) FEELAWKIAKMIWSDVMQQC, rhodamine-labeled]",150
3,"FEELAWKIAKMIISDVFQQC(tetramethylrhodamine‑5‑maleimide)-NH2 [PV-49 (SEQ ID NO:107) FEELAWKIAKMIISDVFQQC, rhodamine-labeled]",2.5
4,"QEEFAWKIAKMIVSDVFQQC(tetramethylrhodamine‑5‑maleimide)-NH2 [PV-47 (SEQ ID NO:105) QEEFAWKIAKMIVSDVFQQC, rhodamine-labeled]",89
5,"QEEFAWKIAKMIISDVFQQC(tetramethylrhodamine‑5‑maleimide)-NH2 [PV-48 (SEQ ID NO:106) QEEFAWKIAKMIISDVFQQC, rhodamine-labeled]",124
6,"Ac-DLAWKIAKMIVSDVMQQC(tetramethylrhodamine‑5‑maleimide)-NH2 [SEQ ID NO:112 peptide Ac-DLAWKIAKMIVSDVMQQC, rhodamine-labeled]",107

# Molecular target: T4, Full-length bovine RIα (bovine, UniProt P00514 1-380)
# T4 construct: mature; given as full-length
# Assay: fluorescence anisotropy, labeled peptide
# Experimental: as §3, §4
# T4 sequence (P00514 whole entry): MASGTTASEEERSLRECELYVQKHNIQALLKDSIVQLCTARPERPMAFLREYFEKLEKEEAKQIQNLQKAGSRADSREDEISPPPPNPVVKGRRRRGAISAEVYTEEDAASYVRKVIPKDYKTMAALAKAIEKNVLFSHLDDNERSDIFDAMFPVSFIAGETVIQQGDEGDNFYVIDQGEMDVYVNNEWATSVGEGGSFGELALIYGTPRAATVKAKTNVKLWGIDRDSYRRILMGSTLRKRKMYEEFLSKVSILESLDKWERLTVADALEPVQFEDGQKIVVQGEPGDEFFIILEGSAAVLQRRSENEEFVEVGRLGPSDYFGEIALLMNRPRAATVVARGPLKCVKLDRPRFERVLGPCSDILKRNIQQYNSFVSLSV
row,Binder,Kd [nM]
1,"VQGNTDEAQEELAWKIAKMIWSDVMQQC(tetramethylrhodamine‑5‑maleimide)-NH2 (also called single mutant V21W) [SEQ ID NO:111 peptide (. . . QEELAWKIAKMIWSDVMQQC), rhodamine-labeled]",120
2,"FEELAWKIAKMIWSDVMQQC(tetramethylrhodamine‑5‑maleimide)-NH2 [PV-37 (SEQ ID NO:104) FEELAWKIAKMIWSDVMQQC, rhodamine-labeled]",19
3,"FEELAWKIAKMIISDVFQQC(tetramethylrhodamine‑5‑maleimide)-NH2 [PV-49 (SEQ ID NO:107) FEELAWKIAKMIISDVFQQC, rhodamine-labeled]",1.1
4,"QEEFAWKIAKMIVSDVFQQC(tetramethylrhodamine‑5‑maleimide)-NH2 [PV-47 (SEQ ID NO:105) QEEFAWKIAKMIVSDVFQQC, rhodamine-labeled]",39
5,"QEEFAWKIAKMIISDVFQQC(tetramethylrhodamine‑5‑maleimide)-NH2 [PV-48 (SEQ ID NO:106) QEEFAWKIAKMIISDVFQQC, rhodamine-labeled]",12
6,"Ac-DLAWKIAKMIVSDVMQQC(tetramethylrhodamine‑5‑maleimide)-NH2 [SEQ ID NO:112 peptide Ac-DLAWKIAKMIVSDVMQQC, rhodamine-labeled]",773

# Molecular target: T1, GFP-RIIα D/D
# Assay: SPOT peptide array, anti-GFP detection
# Remark: another data set of the same source
row,Binder,binding result
1,AWKIAKMIVSDIMQQ (also: cellulose-bound) [SEQ ID NO:77 peptide],binds
2,TDEAQEELAWKIAKMIVSDIMQQ (also: cellulose-bound) [SEQ ID NO:69 peptide],binds
3,AQEELAWKIAKMIVSDIMQQ (also: cellulose-bound) [SEQ ID NO:72 peptide],binds
4,ELAWKIAKMIVSDIMQQ (also: cellulose-bound) [SEQ ID NO:75 peptide],binds
5,GNTDEAQEELAWKIAKMIVSDIMQQ (also: cellulose-bound) [SEQ ID NO:67 peptide],binds
6,DEAQEELAWKIAKMIVSDIMQQ (also: cellulose-bound) [SEQ ID NO:70 peptide],binds
7,EAQEELAWKIAKMIVSDIMQQ (also: cellulose-bound) [SEQ ID NO:71 peptide],binds
8,QGNTDEAQEELAWKIAKMIVSDIMQQ (also: cellulose-bound) [SEQ ID NO:66 peptide],binds
9,QEELAWKIAKMIVSDIMQQ (also: cellulose-bound) [SEQ ID NO:73 peptide],binds
10,EELAWKIAKMIVSDIMQQ (also: cellulose-bound) [SEQ ID NO:74 peptide],binds
11,NTDEAQEELAWKIAKMIVSDIMQQ (also: cellulose-bound) [SEQ ID NO:68 peptide],binds
12,LAWKIAKMIVSDIMQQ (also: cellulose-bound) [SEQ ID NO:76 peptide],binds

# Molecular target: T2, GFP-RIα D/D
# Assay: SPOT peptide array, anti-GFP detection
# Remark: another data set of the same source
row,Binder,binding result
1,TDEAQEELAWKIAKMIVSDIMQQ (also: cellulose-bound) [SEQ ID NO:69 peptide],binds
2,AQEELAWKIAKMIVSDIMQQ (also: cellulose-bound) [SEQ ID NO:72 peptide],binds
3,ELAWKIAKMIVSDIMQQ (also: cellulose-bound) [SEQ ID NO:75 peptide],binds
4,GNTDEAQEELAWKIAKMIVSDIMQQ (also: cellulose-bound) [SEQ ID NO:67 peptide],binds
5,DEAQEELAWKIAKMIVSDIMQQ (also: cellulose-bound) [SEQ ID NO:70 peptide],binds
6,EAQEELAWKIAKMIVSDIMQQ (also: cellulose-bound) [SEQ ID NO:71 peptide],binds
7,QGNTDEAQEELAWKIAKMIVSDIMQQ (also: cellulose-bound) [SEQ ID NO:66 peptide],binds
8,QEELAWKIAKMIVSDIMQQ (also: cellulose-bound) [SEQ ID NO:73 peptide],binds
9,EELAWKIAKMIVSDIMQQ (also: cellulose-bound) [SEQ ID NO:74 peptide],binds
10,NTDEAQEELAWKIAKMIVSDIMQQ (also: cellulose-bound) [SEQ ID NO:68 peptide],binds
